From patent publication US20030190705A1 (SUNOL MOLECULAR, published 2003)

B1: chimeric anti-tissue factor antibody cH36 (antibody, human IgG4, V domains shown)
VH: EIQLQQSGPELVKPGASVQVSCKTSGYSFTDYNVYWVRQSHGKSLEWIGYIDPYNGITIYDQNFKGKATLTVDKSSTTAFMHLNSLTSDDSAVYFCARDVTTALDFWGQGTTLTVSS
VL: DIQMTQSPASQSASLGESVTITCLASQTIDTWLAWYQQKPGKSPQLLIYAATNLADGVPSRFSGSGSGTKFSFKISSLQAEDFVNYYCQQVYSSPFTFGAGTKLELK
B2: hOAT (humanized IgG One Anti-Tissue Factor antibody) (antibody, V domains shown)
VH: QIQLVQSGGEVKKPGASVRVSCKASGYSFTDYNVYWVRQSPGKGLEWIGYIDPYNGITIYDQNLKGKATLTVDKSTSTAYMELSSLRSEDTAVYFCARDVTTALDFWGQGTTVTVSS
VL: DIQMTQSPASLSASVGDRVTITCLASQTIDTWLAWYLQKPGKSPQLLIYAATNLADGVPSRFSGSGSGTDFSFTISSLQPEDFATYYCQQVYSSPFTFGQGTKLEIK
B3: hFAT (humanized IgG Four Anti-Tissue Factor antibody) (antibody, V domains shown)
VH: B2 VH
VL: B2 VL

Key:
[1] = molecular target: T1, lipidated recombinant human tissue factor (e.g., Innovin) (human, UniProt P13726 33-295, limits assumed); assay: cell-based or functional assay
[2] = molecular target: T1, lipidated recombinant human tissue …; assay: cell-based or functional assay; remark: listed apart in the source

PT Time (in seconds) at 12.9 nM anti-TF antibody [1] | PT Time (in seconds) at 25.8 nM anti-TF antibody [1] | PT Time (in seconds) at 51.6 nM anti-TF antibody [1] | inhibition of TF function (PT assay) [2] | Binder
19.8 s | 40 s | 101 s | ~95% | B1
18.9 s | 33.7 s | 82.1 s | ~95% | B2
20.5 s | 41.7 s | 94.8 s | ~95% | B3
